In US12099068B2, “Biomarkers for graft-versus-host disease” (Incyte Corporation, priority 2018, dated 2024):

B1: DDC (protein, UniProt P20711 1-480, looked up)
Aromatic-L-amino-acid …: MNASEFRRRGKEMVDYMANYMEGIEGRQVYPDVEPGYLRPLIPAAAPQEPDTFEDIINDVEKIIMPGVTHWHSPYFFAYFPTASSYPAMLADMLCGAIGCIGFSWAASPACTELETVMMDWLGKMLELPKAFLNEKAGEGGGVIQGSASEATLVALLAARTKVIHRLQAASPELTQAAIMEKLVAYSSDQAHSSVERAGLIGGVKLKAIPSDGNFAMRASALQEALERDKAAGLIPFFMVATLGTTTCCSFDNLLEVGPICNKEDIWLHVDAAYAGSAFICPEFRHLLNGVEFADSFNFNPHKWLLVNFDCSAMWVKKRTDLTGAFRLDPTYLKHSHQDSGLITDYRHWQIPLGRRFRSLKMWFVFRMYGVKGLQAYIRKHVQLSHEFESLVRQDPRFEICVEVILGLVCFRLKGSNKVNEALLQRINSAKKIHLVPCHLRDKFVLRFAICSRTVESAHVQRAWEHIKELAADVLRAERE
B2: CA12 (protein, UniProt O43570 25-354, looked up)
Carbonic anhydrase 12: APVNGSKWTYFGPDGENSWSKKYPSCGGLLQSPIDLHSDILQYDASLTPLEFQGYNLSANKQFLLTNNGHSVKLNLPSDMHIQGLQSRYSATQLHLHWGNPNDPHGSEHTVSGQHFAAELHIVHYNSDLYPDASTASNKSEGLAVLAVLIEMGSFNPSYDKIFSHLQHVKYKGQEAFVPGFNIEELLPERTAEYYRYRGSLTTPPCNPTVLWTVFRNPVQISQEQLLALETALYCTHMDDPSPREMINNFRQVQKFDERLVYTSFSQVQVCTAAGLSLGIILSLALAGILGICIVVVVSIWLFRRKSIKKGDNKGVIYKPATKMETEAHA
B3: LAIR-2 (protein, UniProt Q6ISS4 22-152, looked up)
Leukocyte-associated …: QEGALPRPSISAEPGTVISPGSHVTFMCRGPVGVQTFRLEREDRAKYKDSYNVFRLGPSESEARFHIDSVSEGNAGLYRCLYYKPPGWSEHSDFLELLVKESSGGPDSPDTEPGSSAGTVPGTEASGFDAP
B4: XPNPEP2 (protein, UniProt O43895 22-649, looked up)
Xaa-Pro aminopeptidase 2: HTKPVDLGGQDVRNCSTNPPYLPVTVVNTTMSLTALRQQMQTQNLSAYIIPGTDAHMNEYIGQHDERRAWITGFTGSAGTAVVTMKKAAVWTDSRYWTQAERQMDCNWELHKEVGTTPIVTWLLTEIPAGGRVGFDPFLLSIDTWESYDLALQGSNRQLVSITTNLVDLVWGSERPPVPNQPIYALQEAFTGSTWQEKVSGVRSQMQKHQKVPTAVLLSALEETAWLFNLRASDIPYNPFFYSYTLLTDSSIRLFANKSRFSSETLSYLNSSCTGPMCVQIEDYSQVRDSIQAYSLGDVRIWIGTSYTMYGIYEMIPKEKLVTDTYSPVMMTKAVKNSKEQALLKASHVRDAVAVIRYLVWLEKNVPKGTVDEFSGAEIVDKFRGEEQFSSGPSFETISASGLNAALAHYSPTKELNRKLSSDEMYLLDSGGQYWDGTTDITRTVHWGTPSAFQKEAYTRVLIGNIDLSRLIFPAATSGRMVEAFARRALWDAGLNYGHGTGHGIGNFLCVHEWPVGFQSNNIAMAKGMFTSIEPGYYKDGEFGIRLEDVALVVEAKTKYPGSYLTFEVVSFVPYDRNLIDVSLLSPEHLQYLNRYYQTIREKVGPELQRRQLLEEFEWLQQHTEPLA
B5: PIK3AP1 (protein, UniProt Q6ZUJ8 1-805, looked up)
Phosphoinositide 3-kinase …: MAASGVPRGCDILIVYSPDAEEWCQYLQTLFLSSRQVRSQKILTHRLGPEASFSAEDLSLFLSTRCVVVLLSAELVQHFHKPALLPLLQRAFHPPHRVVRLLCGVRDSEEFLDFFPDWAHWQELTCDDEPETYVAAVKKAISEDSGCDSVTDTEPEDEKVVSYSKQQNLPTVTSPGNLMVVQPDRIRCGAETTVYVIVRCKLDDRVATEAEFSPEDSPSVRMEAKVENEYTISVKAPNLSSGNVSLKIYSGDLVVCETVISYYTDMEEIGNLLSNAANPVEFMCQAFKIVPYNTETLDKLLTESLKNNIPASGLHLFGINQLEEEDMMTNQRDEELPTLLHFAAKYGLKNLTALLLTCPGALQAYSVANKHGHYPNTIAEKHGFRDLRQFIDEYVETVDMLKSHIKEELMHGEEADAVYESMAHLSTDLLMKCSLNPGCDEDLYESMAAFVPAATEDLYVEMLQASTSNPIPGDGFSRATKDSMIRKFLEGNSMGMTNLERDQCHLGQEEDVYHTVDDDEAFSVDLASRPPVPVPRPETTAPGAHQLPDNEPYIFKVFAEKSQERPGNFYVSSESIRKGPPVRPWRDRPQSSIYDPFAGMKTPGQRQLITLQEQVKLGIVNVDEAVLHFKEWQLNQKKRSESFRFQQENLKRLRDSITRRQREKQKSGKQTDLEITVPIRHSQHLPAKVEFGVYESGPRKSVIPPRTELRRGDWKTDSTSSTASSTSNRSSTRSLLSVSSGMEGDNEDNEVPEVTRSRSPGPPQVDGTPTMSLERPPRVPPRAASQRPPTRETFHPPPPVPPRGR
B6: SMAD1 (protein, UniProt Q15797 1-465, looked up)
Mothers against …: MNVTSLFSFTSPAVKRLLGWKQGDEEEKWAEKAVDALVKKLKKKKGAMEELEKALSCPGQPSNCVTIPRSLDGRLQVSHRKGLPHVIYCRVWRWPDLQSHHELKPLECCEFPFGSKQKEVCINPYHYKRVESPVLPPVLVPRHSEYNPQHSLLAQFRNLGQNEPHMPLNATFPDSFQQPNSHPFPHSPNSSYPNSPGSSSSTYPHSPTSSDPGSPFQMPADTPPPAYLPPEDPMTQDGSQPMDTNMMAPPLPSEINRGDVQAVAYEEPKHWCSIVYYELNNRVGEAFHASSTSVLVDGFTDPSNNKNRFCLGLLSNVNRNSTIENTRRHIGKGVHLYYVGGEVYAECLSDSSIFVQSRNCNYHHGFHPTTVCKIPSGCSLKIFNNQEFAQLLAQSVNHGFETVYELTKMCTIRMSFVKGWGAEYHRQDVTSTPCWIEIHLHGPLQWLDKVLTQMGSPHNPISSVS
B7: DDX58 (protein, UniProt O95786 1-925, looked up)
Antiviral innate immune …: MTTEQRRSLQAFQDYIRKTLDPTYILSYMAPWFREEEVQYIQAEKNNKGPMEAATLFLKFLLELQEEGWFRGFLDALDHAGYSGLYEAIESWDFKKIEKLEEYRLLLKRLQPEFKTRIIPTDIISDLSECLINQECEEILQICSTKGMMAGAEKLVECLLRSDKENWPKTLKLALEKERNKFSELWIVEKGIKDVETEDLEDKMETSDIQIFYQEDPECQNLSENSCPPSEVSDTNLYSPFKPRNYQLELALPAMKGKNTIICAPTGCGKTFVSLLICEHHLKKFPQGQKGKVVFFANQIPVYEQQKSVFSKYFERHGYRVTGISGATAENVPVEQIVENNDIIILTPQILVNNLKKGTIPSLSIFTLMIFDECHNTSKQHPYNMIMFNYLDQKLGGSSGPLPQVIGLTASVGVGDAKNTDEALDYICKLCASLDASVIATVKHNLEELEQVVYKPQKFFRKVESRISDKFKYIIAQLMRDTESLAKRICKDLENLSQIQNREFGTQKYEQWIVTVQKACMVFQMPDKDEESRICKALFLYTSHLRKYNDALIISEHARMKDALDYLKDFFSNVRAAGFDEIEQDLTQRFEEKLQELESVSRDPSNENPKLEDLCFILQEEYHLNPETITILFVKTRALVDALKNWIEGNPKLSFLKPGILTGRGKTNQNTGMTLPAQKCILDAFKASGDHNILIATSVADEGIDIAQCNLVILYEYVGNVIKMIQTRGRGRARGSKCFLLTSNAGVIEKEQINMYKEKMMNDSILRLQTWDEAVFREKILHIQTHEKFIRDSQEKPKPVPDKENKKLLCRKCKALACYTADVRVIEECHYTVLGDAFKECFVSRPHPKPKQFSSFEKRAKIFCARQNCSHDWGIHVKYKTFEIPVIKIESFVVEDIATGVQTLYSKWKDFHFEKIPFDPAEMSK
B8: EDIL3 (protein, UniProt O43854 24-480, looked up)
EGF-like repeat and discoidin …: DICDPNPCENGGICLPGLADGSFSCECPDGFTDPNCSSVVEVASDEEEPTSAGPCTPNPCHNGGTCEISEAYRGDTFIGYVCKCPRGFNGIHCQHNINECEVEPCKNGGICTDLVANYSCECPGEFMGRNCQYKCSGPLGIEGGIISNQQITASSTHRALFGLQKWYPYYARLNKKGLINAWTAAENDRWPWIQINLQRKMRVTGVITQGAKRIGSPEYIKSYKIAYSNDGKTWAMYKVKGTNEDMVFRGNIDNNTPYANSFTPPIKAQYVRLYPQVCRRHCTLRMELLGCELSGCSEPLGMKSGHIQDYQITASSIFRTLNMDMFTWEPRKARLDKQGKVNAWTSGHNDQSQWLQVDLLVPTKVTGIITQGAKDFGHVQFVGSYKLAYSNDGEHWTVYQDEKQRKDKVFQGNFDNDTHRKNVIDPPIYARHIRILPWSWYGRITLRSELLGCTEEE
B9: TRAF2 (protein, UniProt Q12933 2-501, looked up)
TNF receptor-associated …: AAASVTPPGSLELLQPGFSKTLLGTKLEAKYLCSACRNVLRRPFQAQCGHRYCSFCLASILSSGPQNCAACVHEGIYEEGISILESSSAFPDNAARREVESLPAVCPSDGCTWKGTLKEYESCHEGRCPLMLTECPACKGLVRLGEKERHLEHECPERSLSCRHCRAPCCGADVKAHHEVCPKFPLTCDGCGKKKIPREKFQDHVKTCGKCRVPCRFHAIGCLETVEGEKQQEHEVQWLREHLAMLLSSVLEAKPLLGDQSHAGSELLQRCESLEKKTATFENIVCVLNREVERVAMTAEACSRQHRLDQDKIEALSSKVQQLERSIGLKDLAMADLEQKVLEMEASTYDGVFIWKISDFARKRQEAVAGRIPAIFSPAFYTSRYGYKMCLRIYLNGDGTGRGTHLSLFFVVMKGPNDALLRWPFNQKVTLMLLDQNNREHVIDAFRPDVTSSSFQRPVNDMNIASGCPLFCPVSKMEAKNSYVRDDAIFIKAIVDLTGL

Test system: plasma proteins
Experiment: Plasma proteins modulated between baseline and day 28 in responders (CR, VGPR, PR; n = 19), Example 6 (Table 13)
Type: in vivo, human
Settings: plasma protein (OLINK NPX); responders (CR, VGPR, PR; n = 19); itacitinib 200 mg or 300 mg QD with corticosteroids; day 28 vs baseline
How it was run: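 Longitudinal comparison, day 28 versus baseline, with steroid-naive (N=10) and steroid-refractory (N=18) patients combined. Proteins measured by OLINK proximity extension, log2 normalized protein expression. Differences tested by t tests, ANOVA, Pearson correlation, P<0.05 significant.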

Row | Molecule | Fold Change, Increased Expression from Baseline to Day 28 | Fold Change, Decreased Expression from Baseline to Day 28
1 | B1 | 1.5485 | 
2 | B2 | 1.247 | 
3 | B3 |  | −1.8117
4 | B4 | 1.285 | 
5 | B5 |  | −1.7193
6 | B6 |  | −1.3807
7 | B7 |  | −1.6381
8 | B8 | 1.12 | 
9 | B9 |  | −1.4472
